Assay results: the supplement of paper PMC10567573

B1: KLHL14 (parent)
chain: WLYCYDPVMDVWARKQDMNTKRAI

Variants of: B1
Test: protein stability index of a GFP-peptide fusion (GPS, HEK-293T) (PSI 1-6); higher = more stable
Settings: c terminus: a fixed tail appended
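Further: lentivirally expressed fusions sorted by FACS into six bins by GFP to DsRed ratio, PSI derived from sequencing read proportions per bin multiplied by bin number.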

Protein stability index of substitutions, site by site:
W12: R 1.78; H 2.04; F 1.86; C 2.09; P 1.76; K 2.03; S 1.5; A 1.89; T 2.11; M 1.77; Y 2.09; V 1.95; D 2.23; Q 1.92; L 2.07; G 2.1; I 1.47; E 2.06; N 2.2
P7: A 2.87; Y 2.15; V 2.08; F 3.12; C 2.33; R 1.87; H 2.1; I 1.93; N 1.84; S 1.62; M 1.98; E 1.88; Q 1.51; D 2.28; T 1.64; G 1.94; K 2.24
V8: D 2.37; C 1.81; F 2.18; A 1.76; G 1.58; K 1.88; Q 1.78; H 2.34; S 1.89; E 2.17; L 2.25; Y 2.14; P 1.8; N 1.75; T 2.45; W 1.95; I 2.03; M 2.26; R 1.92
A13: R 1.8; Q 2.46; P 1.82; M 1.96; C 1.81; D 2.84; H 2.67; L 1.97; G 1.97; W 2.44; K 2.52; F 1.57; Y 1.87; S 2; N 2.46; I 2.18; V 2.13; E 2.36; T 2.1
V11: H 1.61; F 2.32; Y 1.92; D 1.98; M 1.61; W 1.76; K 1.95; L 2.04; P 1.65; S 2.52; R 2.1; Q 1.98; A 1.93; T 2.32; E 2.3; I 1.43; C 1.91; G 1.62; N 2.21
K15: T 1.71; F 1.76; Q 1.95; S 1.79; G 1.56; C 2.29; L 2.21; D 1.97; I 2.11; P 1.64; V 1.89; E 2.21; M 1.54; A 1.68; N 2.03; H 1.94; R 2.14
M9: A 2.62; T 2.55; N 2.18; F 1.62; S 2.26; W 1.64; G 1.77; L 2.17; P 2.32; H 2.24; K 2.02; R 2.09; E 1.74; I 1.9; C 2.35; Q 2.6; V 1.65; Y 2.01; D 1.92
D10: R 2.34; T 1.69; Q 2.74; L 2.82; V 1.52; C 1.91; N 2.1; Y 1.92; S 1.99; P 1.72; F 1.54; E 2.19; I 1.8; G 2.77; W 2.71; M 1.59; H 2.11; K 3.09; A 1.88
R14: C 1.75; F 1.57; K 1.9; E 2.13; G 1.81; T 1.54; V 2.62; A 1.85; P 2.23; S 1.88; I 1.84; D 2.11; H 1.97; Q 2.45; W 1.85; Y 1.81; N 1.77; L 2.36; M 1.93
